Source: patent publication US20250387497A1 (PURDUE RESEARCH FOUNDATION, published 2025)
Values joined by “and” are separate entries in the source; they are usually repeats but may differ in a detail not shown here. Equal values may be shown once.

T1: fibroblast growth factor receptor 3 (FGFR3)
T1 chain: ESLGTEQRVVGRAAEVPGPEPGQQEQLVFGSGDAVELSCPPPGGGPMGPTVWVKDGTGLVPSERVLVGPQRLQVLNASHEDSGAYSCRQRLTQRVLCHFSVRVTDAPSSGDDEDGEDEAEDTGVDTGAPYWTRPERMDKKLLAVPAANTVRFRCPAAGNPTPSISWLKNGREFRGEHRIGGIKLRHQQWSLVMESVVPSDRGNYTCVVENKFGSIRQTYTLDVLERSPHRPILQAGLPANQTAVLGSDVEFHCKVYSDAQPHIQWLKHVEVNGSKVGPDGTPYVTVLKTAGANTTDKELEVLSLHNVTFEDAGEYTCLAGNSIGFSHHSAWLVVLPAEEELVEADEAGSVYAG


What was measured:
[1] = biological target: T1, fibroblast growth factor receptor 3 …; test: binding affinity, method not stated
[2] = biological target: interleukin-4 receptor alpha (IL-4Rα); test: binding affinity, method not stated
interleukin-4 receptor alpha (IL-4Rα), sequence (chain, as listed by the source): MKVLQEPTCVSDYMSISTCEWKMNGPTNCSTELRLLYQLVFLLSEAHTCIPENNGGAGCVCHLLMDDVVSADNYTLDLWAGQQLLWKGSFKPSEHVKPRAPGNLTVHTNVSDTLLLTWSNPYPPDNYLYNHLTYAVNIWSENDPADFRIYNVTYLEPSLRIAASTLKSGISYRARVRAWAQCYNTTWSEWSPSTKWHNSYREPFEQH

Row | Binder | Kd [1] | Kd [2]
1 | VSPPLTLGQLLS [peptide "F", binding motif for FGFR3, VSPPLTLGQLLS] | ~1000 nM and 1000 nM | 
2 | KLAKLAKKLAKLAK [peptide "I", binding motif for IL-4Rα, KLAKLAKKLAKLAK] |  | < 60000 nM and 55900 nM
